Experimental data published in US20250250357A1 (NANJING ZAIMING PHARMACEUTICAL, published 2025).

Key:
[1] = biological target: T1, human MSLN-R3-3 polypeptide (human); experiment: ELISA on coated antigen, antibody 0.1 nM
T1 construct: also called human MSLN-R3-3 protein; hMSLN-R3-3
Protocol: (§1) The plate was sealed with a plastic film and incubated at 4° C. overnight. The next day, the plate was washed twice with PBST, and a blocking buffer [PBS+2% (w/w) BSA] was added for blocking at room temperature for 2 h. The blocking buffer was discarded, and a chimeric antibody or negative control antibody serially diluted from 100 nM was added at 50 μL/well. After incubation at 37° C. for 2 h, the plate was washed 3 times with PBST. […] After incubation at 37° C. for 2 h, the plate was washed 5 times with PBST. A TMB substrate was added at 50 μL/well for incubation at room temperature for 5-10 min, and then a stop solution (1.0 N HCl) was added at 50 μL/well.

[2] = biological target: T2, human MSLN-R3-his protein (human, UniProt Q13421 487-598); experiment: ELISA on coated antigen, antibody 0.01 nM
T2 construct: Self-made in HEK293E cells; also called human MSLN-R3 protein; hMSLN-R3-his; not shown: His tag
T2 sequence (Q13421 495-606): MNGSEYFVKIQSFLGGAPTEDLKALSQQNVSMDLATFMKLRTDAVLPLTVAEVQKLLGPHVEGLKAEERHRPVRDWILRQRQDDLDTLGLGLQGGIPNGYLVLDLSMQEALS

[3] = biological target: T2, human MSLN-R3-his protein; experiment: ELISA on coated antigen, antibody 1 nM
Protocol: as §1

[4] = biological target: T3, human MSLN-R2-his protein (human, UniProt Q13421 391-486); experiment: ELISA on coated antigen, antibody 0.0001 nM
T3 construct: Self-made in HEK293E cells; also called human MSLN-R2 protein; hMSLN-R2-his; not shown: His tag
T3 sequence (Q13421 other isoform, or with tags, fused parts or gaps): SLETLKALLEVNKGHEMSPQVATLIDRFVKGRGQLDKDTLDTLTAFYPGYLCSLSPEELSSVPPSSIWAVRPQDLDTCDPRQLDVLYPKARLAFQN

[5] = biological target: T3, human MSLN-R2-his protein; experiment: ELISA on coated antigen, no antibody (column none)
Protocol: as §1

[6] = biological target: T1, human MSLN-R3-3 polypeptide; experiment: ELISA on coated antigen, no antibody (column none)
Protocol: as §1

[7] = biological target: T1, human MSLN-R3-3 polypeptide; experiment: ELISA on coated antigen, antibody 10 nM
Protocol: as §1

[8] = biological target: T3, human MSLN-R2-his protein; experiment: ELISA on coated antigen, antibody 0.1 nM
Protocol: as §1

[9] = biological target: T2, human MSLN-R3-his protein; experiment: ELISA on coated antigen, antibody 0.001 nM
Protocol: as §1

[10] = biological target: T2, human MSLN-R3-his protein; experiment: ELISA on coated antigen, antibody 0.0001 nM
Protocol: as §1

[11] = biological target: T3, human MSLN-R2-his protein; experiment: ELISA on coated antigen, antibody 100 nM
Protocol: as §1

[12] = biological target: T2, human MSLN-R3-his protein; experiment: ELISA on coated antigen, antibody 100 nM
Protocol: as §1

[13] = biological target: T2, human MSLN-R3-his protein; experiment: ELISA on coated antigen, antibody 0.1 nM
Protocol: as §1

[14] = biological target: T2, human MSLN-R3-his protein; experiment: ELISA on coated antigen, no antibody (column none)
Protocol: as §1

[15] = biological target: T2, human MSLN-R3-his protein; experiment: ELISA on coated antigen, antibody 10 nM
Protocol: as §1

[16] = biological target: T3, human MSLN-R2-his protein; experiment: ELISA on coated antigen, antibody 0.001 nM
Protocol: as §1

[17] = biological target: T1, human MSLN-R3-3 polypeptide; experiment: ELISA on coated antigen, antibody 100 nM
Protocol: as §1

[18] = biological target: T1, human MSLN-R3-3 polypeptide; experiment: ELISA on coated antigen, antibody 0.0001 nM
Protocol: as §1

[19] = biological target: T1, human MSLN-R3-3 polypeptide; experiment: ELISA on coated antigen, antibody 0.001 nM
Protocol: as §1

[20] = biological target: T3, human MSLN-R2-his protein; experiment: ELISA on coated antigen, antibody 10 nM
Protocol: as §1

[21] = biological target: T1, human MSLN-R3-3 polypeptide; experiment: ELISA on coated antigen, antibody 0.01 nM
Protocol: as §1

[22] = biological target: T3, human MSLN-R2-his protein; experiment: ELISA on coated antigen, antibody 0.01 nM
Protocol: as §1

[23] = biological target: T3, human MSLN-R2-his protein; experiment: ELISA on coated antigen, antibody 1 nM
Protocol: as §1

[24] = biological target: T1, human MSLN-R3-3 polypeptide; experiment: ELISA on coated antigen, antibody 1 nM
Protocol: as §1

Binder | OD450 [1] [OD450] | OD450 [2] [OD450] | OD450 [3] [OD450] | OD450 [4] [OD450] | OD450 [5] [OD450] | OD450 [6] [OD450] | OD450 [7] [OD450] | OD450 [8] [OD450] | OD450 [9] [OD450] | OD450 [10] [OD450] | OD450 [11] [OD450] | OD450 [12] [OD450] | OD450 [13] [OD450] | OD450 [14] [OD450] | OD450 [15] [OD450] | OD450 [16] [OD450] | OD450 [17] [OD450] | OD450 [18] [OD450] | OD450 [19] [OD450] | OD450 [20] [OD450] | also measured
S009-F2-56.12 (antibody, human IgG1, kappa, V domains shown, Human-murine chimeric antibody: murine VH/VL on human IgG1 heavy and kappa light constant regions) VH: DVQLQESGPGMVKPSQSLSLTCTVTGYSITSGYDWHWIRHFPGNKLEWMGYISYSGSTNYNPSLKSRISITHDTSKNHFFLKLKSVTTEDTATYYCARGTGPDYWGQGTTLTVSS VL: DIVMTQSQKFMSTSVGDRVSITCKASQNVRTAVAWYQQKPGQSPKALIHLPSNRHTGVPDRFTGSGSGTDFTLTISNVQSEDLADYFCLQHWNYPLTFGGGTKLEIKR | 0.06 | 0.05 | 0.06 | 0.06 | 0.07 | 0.07 | 0.07 | 0.06 | 0.05 | 0.05 | 0.17 | 0.13 | 0.05 | 0.06 | 0.07 | 0.06 | 0.14 | 0.06 | 0.06 | 0.07 | OD450 [21]: 0.05 OD450; OD450 [22]: 0.06 OD450; OD450 [23]: 0.06 OD450; OD450 [24]: 0.06 OD450
S009-F2.38.12 (antibody, human IgG1, kappa, V domains shown, Human-murine chimeric antibody: murine VH/VL on human IgG1 heavy and kappa light constant regions) VH: QVQLQQPGTELVKPGASVKLSCKASGYTFTSYWMHWVKQRPGQGLEWIGNINPSNGGTNYNEKIKNKATLTVDKSSSTAYMQLSSLTSEDSAVYYCARWNYYGNYPFDYWGQGTTLTVSS VL: DIVMTQSQKFMSTTVGDRVSITCKASQNVGTAVAWYQQKPGQSPKLLIYSASNRYTGVPDRFTGSGSGTDFTLTISNMQSEDLADYFCQQYSSYPLTFGAGTKLELKR | 0.05 | 0.04 | 0.05 | 0.05 | 0.06 | 0.05 | 0.05 | 0.05 | 0.05 | 0.05 | 0.06 | 0.06 | 0.05 | 0.05 | 0.05 | 0.05 | 0.06 | 0.05 | 0.05 | 0.05 | OD450 [21]: 0.05 OD450; OD450 [22]: 0.05 OD450; OD450 [23]: 0.05 OD450; OD450 [24]: 0.05 OD450
S009-F2.21.4 (antibody, human IgG1, kappa, V domains shown, Human-murine chimeric antibody: murine VH/VL on human IgG1 heavy and kappa light constant regions) VH: EVQLQQSGPELVKPGASVKIPCKASGYTFTDYNMDWVKQSHGKSLEWIGDINPNNGGSIYNQRFKGKATLTVDKSSSTAYMELRSLTSEDSAVYYCARRAYYSTGYFDVWGTGTTVTVSS VL: QIVLTQSPALMSASPGEKVTITCSASSSISYMHWFQQKPGTSPKLWIYSTSTLASGVPARFSGSGSGTSYSLTISRMEAEDTATYYCQQRSSYPPTFGGGTKLEIKR | 0.05 | 0.05 | 0.05 | 0.05 | 0.06 | 0.05 | 0.05 | 0.05 | 0.05 | 0.05 | 0.06 | 0.06 | 0.05 | 0.06 | 0.05 | 0.05 | 0.05 | 0.05 | 0.05 | 0.05 | OD450 [21]: 0.05 OD450; OD450 [22]: 0.05 OD450; OD450 [23]: 0.05 OD450; OD450 [24]: 0.05 OD450
S009-F2.17.3 (antibody, human IgG1, kappa, V domains shown, Human-murine chimeric antibody: murine VH/VL on human IgG1 heavy and kappa light constant regions) VH: QVQLQQPGTELVTPGASVKLSCKASGYSFTSYWMHWVKQRPGQGLEWIGNINPSNGDTFYNEKFKNKATLTVDKSSSTAYMQLSSLTSEDSAVYYCARGWLRDYWGQGTTLTVSS VL: not shown | 0.05 | 0.05 | 0.29 | 0.05 | 0.06 | 0.05 | 0.05 | 0.05 | 0.05 | 0.05 | 0.06 | 2.3 | 0.07 | 0.06 | 1.19 | 0.05 | 0.05 | 0.05 | 0.05 | 0.05 | OD450 [21]: 0.05 OD450; OD450 [22]: 0.05 OD450; OD450 [23]: 0.05 OD450; OD450 [24]: 0.05 OD450
S009-F2.23.12 (antibody, human IgG1, kappa, V domains shown, Human-murine chimeric antibody: murine VH/VL on human IgG1 heavy and kappa light constant regions) VH: QVQLQQPGTELVKPGASVKLSCKASGYTFTNYWMHWVKQRPGQGLEWIGNINPSNGGPYYNERFRSKATLTVDKSSSTAYMQLSSLTSEDSAVYYCARPYYGSSYGYFDYWGQGTTLTVSS VL: DIQMTQSPSSLSASLGGKVTITCKASQDINKYIAWYQHKPGKGPRLLIHYTSELQPGIPSRFSGNGSGRDYSFSISNLEPEDIATYYCLQYANPLRTFGGGTKLEIKR | 0.05 | 0.05 | 0.3 | 0.05 | 0.06 | 0.05 | 0.05 | 0.05 | 0.05 | 0.05 | 0.06 | 2.08 | 0.09 | 0.06 | 1.4 | 0.05 | 0.06 | 0.05 | 0.05 | 0.05 | OD450 [21]: 0.05 OD450; OD450 [22]: 0.05 OD450; OD450 [23]: 0.05 OD450; OD450 [24]: 0.05 OD450

Further lines, with some results ahead:

OD450 [1] [OD450] | OD450 [2] [OD450] | OD450 [3] [OD450] | OD450 [4] [OD450] | OD450 [5] [OD450] | OD450 [6] [OD450] | OD450 [7] [OD450] | OD450 [8] [OD450] | OD450 [9] [OD450] | OD450 [10] [OD450] | OD450 [11] [OD450] | OD450 [12] [OD450] | OD450 [13] [OD450] | OD450 [14] [OD450] | OD450 [15] [OD450] | OD450 [16] [OD450] | OD450 [17] [OD450] | OD450 [18] [OD450] | OD450 [19] [OD450] | OD450 [20] [OD450] | Binder | also measured
0.06 | 0.05 | 0.05 | 0.05 | 0.06 | 0.06 | 0.06 | 0.05 | 0.05 | 0.05 | 0.06 | 0.06 | 0.05 | 0.05 | 0.05 | 0.05 | 0.06 | 0.05 | 0.06 | 0.05 | S009-F2.47.1 (antibody, human IgG1, kappa, V domains shown, Human-murine chimeric antibody: murine VH/VL on human IgG1 heavy and kappa light constant regions) VH: QVQLQQPGAELVKPGASVKLSCKASGYTFTSYWMHWVKQRPGQGLEWIGMIHPNSGSTNYNEKFKSKATLTVDKSSSTAYMQLSSLTSEDSAVYYCARPVVPYWYFDVWGTGTTVTVSS VL: DIVMTQSQKFMSTTVGDRVSITCKASQNVGTAVAWYQQKPGQSPKLLIYSASNRYTGVPDRFTGSGSGTDFTLTISNMQSEDLADYFCQQSSSYPLTFGAGTKLELKR | OD450 [21]: 0.05 OD450; OD450 [22]: 0.05 OD450; OD450 [23]: 0.05 OD450; OD450 [24]: 0.05 OD450
0.05 | 0.05 | 0.25 | 0.05 | 0.06 | 0.05 | 0.05 | 0.05 | 0.05 | 0.05 | 0.06 | 1.84 | 0.07 | 0.05 | 0.98 | 0.05 | 0.05 | 0.05 | 0.05 | 0.05 | S009-F2.39.3 (antibody, human IgG1, kappa, V domains shown, Human-murine chimeric antibody: murine VH/VL on human IgG1 heavy and kappa light constant regions) VH: QVQLQQPGTELVKPGASVKLSCKASGYTFTNYWMHWVKQRPGQGLEWIGNINPSSGDSYYNERFMSKAKMTVDKSSSTAYMQLSSLTSEDSAVYYCARSGGLWLAFWGPGTLVTVSA VL: DIVMTQSPSSLAMSVGQKVTMSCKSSQTLLNSVSQNNYLAWYQQKPGQSPTLLVYFASTRESGVPDRFIGGGSGTDFTLTISSVQAEDLADYFCQQHYRTPYTFGGGTNLEIKR | OD450 [21]: 0.05 OD450; OD450 [22]: 0.05 OD450; OD450 [23]: 0.05 OD450; OD450 [24]: 0.05 OD450
